B1: IgG1-F1135 (antibody)
heavy: QVQLQESGPGLVKPSETLSLTCAVSGHSISHDHAWSWVRQPPGEGLEWIGFISYSGITNYNPSLQGRVTISRDNSKNTLYLQMNSLRAEDTAVYYCARSLARTTAMDYWGEGTLVTVSSASTKGPSVFPLAPSSKSTSGGTAALGCLVKDYFPEPVTVSWNSGALTSGVHTFPAVLQSSGLYSLSSVVTVPSSSLGTQTYICNVNHKPSNTKVDKKVEPKSCDKTHTCPPCPAPELRGGPKVFLFPPKPKDTLYISRTPEVTCVVVDVSHEDPEVKFNWYVDGVEVHNAKTKPREEQYNSTYRVVSVLTVLHQDWLNGKEYKCKVSNKALPAPIEKTISKAKGQPREPQVYTLPPSRDELTKNQVSLTCLVKGFYPSDIAVEWESNGQPENNYKTTPPVLDSDGSFFLYSKLTVDKSRWQQGNVFSCSVMHEALHYHVTQKELSLSP
light: not shown
notes: VH3-IgG1 with Fc substitutions (EU numbering) + L(WT)-CK
B2: IgG1-F1136 (antibody)
heavy: QVQLQESGPGLVKPSETLSLTCAVSGHSISHDHAWSWVRQPPGEGLEWIGFISYSGITNYNPSLQGRVTISRDNSKNTLYLQMNSLRAEDTAVYYCARSLARTTAMDYWGEGTLVTVSSASTKGPSVFPLAPSSKSTSGGTAALGCLVKDYFPEPVTVSWNSGALTSGVHTFPAVLQSSGLYSLSSVVTVPSSSLGTQTYICNVNHKPSNTKVDKKVEPKSCDKTHTCPPCPAPELRGGPKVFLFPPKPKDTLYISRTPEVTCVVVDVSHEDPEVKFNWYVDGVEVHNAKTKPREEQYNSTYRVVSVLTVLHQDWLNGKEYKCKVSNKALPAPIEKTISKAKGQPREPQVYTLPPSRDELTKNQVSLTCLVKGFYPSDIAVEWESNGQPENNYKTTPPVLDSDGSFFLYSKLTVDKSRWQQGNEFRCSVMHEALHYHVTQKSLSLSP
light: not shown
notes: as for B1
B3: IgG1-F1144 (antibody)
heavy: QVQLQESGPGLVKPSETLSLTCAVSGHSISHDHAWSWVRQPPGEGLEWIGFISYSGITNYNPSLQGRVTISRDNSKNTLYLQMNSLRAEDTAVYYCARSLARTTAMDYWGEGTLVTVSSASTKGPSVFPLAPSSKSTSGGTAALGCLVKDYFPEPVTVSWNSGALTSGVHTFPAVLQSSGLYSLSSVVTVPSSSLGTQTYICNVNHKPSNTKVDKKVEPKSCDKTHTCPPCPAPELRGGPKVFLFPPKPKDVLYISRTPEVTCVVVDVSHEDPEVKFNWYVDGVEVHNAKTKPREEQYNSTYRVVSVLQPLHADWLNGKEYKCKVSNKALPAPIEKTISKAKGQPREPQVYTLPPSRDELTKNQVSLTCLVKGFYPSDIAVEWESNGQPENNYKTTPPVLDSDGSFFLYSKLTVDKSRWQQGNVFSCSVMHEALHYHVTRKELSLSP
light: not shown
notes: as for B1
B4: IgG1-F1141 (antibody)
heavy: QVQLQESGPGLVKPSETLSLTCAVSGHSISHDHAWSWVRQPPGEGLEWIGFISYSGITNYNPSLQGRVTISRDNSKNTLYLQMNSLRAEDTAVYYCARSLARTTAMDYWGEGTLVTVSSASTKGPSVFPLAPSSKSTSGGTAALGCLVKDYFPEPVTVSWNSGALTSGVHTFPAVLQSSGLYSLSSVVTVPSSSLGTQTYICNVNHKPSNTKVDKKVEPKSCDKTHTCPPCPAPELLGGPSVFLFPPKPKDTLYISRTPEVTCVVVDVSHEDPEVKFNWYVDGVEVHNAKTKPREEQYNSTYRVVSVLTVLHQDWLNGKEYKCKVSNKALPAPIEKTISKAKGQPREPQVYTLPPSRDELTKNQVSLTCLVKGFYPSDIAVEWESNGQPENNYKTTPPVLDSDGSFFLYSKLTVDKSRWQQGNSFRCSVMHEALHYHVTRKELSLSP
light: not shown
notes: as for B1
B5: IgG1-F1139 (antibody)
heavy: QVQLQESGPGLVKPSETLSLTCAVSGHSISHDHAWSWVRQPPGEGLEWIGFISYSGITNYNPSLQGRVTISRDNSKNTLYLQMNSLRAEDTAVYYCARSLARTTAMDYWGEGTLVTVSSASTKGPSVFPLAPSSKSTSGGTAALGCLVKDYFPEPVTVSWNSGALTSGVHTFPAVLQSSGLYSLSSVVTVPSSSLGTQTYICNVNHKPSNTKVDKKVEPKSCDKTHTCPPCPAPELRGGPKVFLFPPKPKDTLYISRTPEVTCVVVDVSHEDPEVKFNWYVDGVEVHNAKTKPREEQYNSTYRVVSVLTVLHQDWLNGKEYKCKVSNKALPAPIEKTISKAKGQPREPQVYTLPPSRDELTKNQVSLTCLVKGFYPSDIAVEWESNGQPENNYKTTPPVLDSDGSFFLYSKLTVDKSRWQQGNVFNCSVMHEALHYHVTQKSLSLSP
light: not shown
notes: as for B1
B6: IgG1-F1137 (antibody)
heavy: QVQLQESGPGLVKPSETLSLTCAVSGHSISHDHAWSWVRQPPGEGLEWIGFISYSGITNYNPSLQGRVTISRDNSKNTLYLQMNSLRAEDTAVYYCARSLARTTAMDYWGEGTLVTVSSASTKGPSVFPLAPSSKSTSGGTAALGCLVKDYFPEPVTVSWNSGALTSGVHTFPAVLQSSGLYSLSSVVTVPSSSLGTQTYICNVNHKPSNTKVDKKVEPKSCDKTHTCPPCPAPELRGGPKVFLFPPKPKDTLYISRTPEVTCVVVDVSHEDPEVKFNWYVDGVEVHNAKTKPREEQYNSTYRVVSVLTVLHQDWLNGKEYKCKVSNKALPAPIEKTISKAKGQPREPQVYTLPPSRDELTKNQVSLTCLVKGFYPSDIAVEWESNGQPENNYKTTPPVLDSDGSFFLYSKLTVDKSRWQQGNSFRCSVMHEALHYHVTQKSLSLSP
light: not shown
notes: as for B1
B7: IgG1-F1145 (antibody)
heavy: QVQLQESGPGLVKPSETLSLTCAVSGHSISHDHAWSWVRQPPGEGLEWIGFISYSGITNYNPSLQGRVTISRDNSKNTLYLQMNSLRAEDTAVYYCARSLARTTAMDYWGEGTLVTVSSASTKGPSVFPLAPSSKSTSGGTAALGCLVKDYFPEPVTVSWNSGALTSGVHTFPAVLQSSGLYSLSSVVTVPSSSLGTQTYICNVNHKPSNTKVDKKVEPKSCDKTHTCPPCPAPELLGGPSVFLFPPKPKDVLYISRTPEVTCVVVDVSHEDPEVKFNWYVDGVEVHNAKTKPREEQYNSTYRVVSVLQVLHADWLNGKEYKCKVSNKALPAPIEKTISKAKGQPREPQVYTLPPSRDELTKNQVSLTCLVKGFYPSDIAVEWESNGQPENNYKTTPPVLDSDGSFFLYSKLTVDKSRWQQGNVFSCSVMHEALHYHVTRKELSLSP
light: not shown
notes: as for B1
B8: IgG1-F1146 (antibody)
heavy: QVQLQESGPGLVKPSETLSLTCAVSGHSISHDHAWSWVRQPPGEGLEWIGFISYSGITNYNPSLQGRVTISRDNSKNTLYLQMNSLRAEDTAVYYCARSLARTTAMDYWGEGTLVTVSSASTKGPSVFPLAPSSKSTSGGTAALGCLVKDYFPEPVTVSWNSGALTSGVHTFPAVLQSSGLYSLSSVVTVPSSSLGTQTYICNVNHKPSNTKVDKKVEPKSCDKTHTCPPCPAPELRGGPKVFLFPPKPKDVLYISRTPEVTCVVVDVSHEDPEVKFNWYVDGVEVHNAKTKPREEQYNSTYRVVSVLQVLHADWLNGKEYKCKVSNKALPAPIEKTISKAKGQPREPQVYTLPPSRDELTKNQVSLTCLVKGFYPSDIAVEWESNGQPENNYKTTPPVLDSDGSFFLYSKLTVDKSRWQQGNVFSCSVMHEALHYHVTRKELSLSP
light: not shown
notes: as for B1
B9: IgG1-F1143 (antibody)
heavy: QVQLQESGPGLVKPSETLSLTCAVSGHSISHDHAWSWVRQPPGEGLEWIGFISYSGITNYNPSLQGRVTISRDNSKNTLYLQMNSLRAEDTAVYYCARSLARTTAMDYWGEGTLVTVSSASTKGPSVFPLAPSSKSTSGGTAALGCLVKDYFPEPVTVSWNSGALTSGVHTFPAVLQSSGLYSLSSVVTVPSSSLGTQTYICNVNHKPSNTKVDKKVEPKSCDKTHTCPPCPAPELRGGPKVFLFPPKPKDTLYISRTPEVTCVVVDVSHEDPEVKFNWYVDGVEVHNAKTKPREEQYNSTYRVVSVLTVLHQDWLNGKEYKCKVSNKALPAPIEKTISKAKGQPREPQVYTLPPSRDELTKNQVSLTCLVKGFYPSDIAVEWESNGQPENNYKTTPPVLDSDGSFFLYSKLTVDKSRWQQGNSFRCSVMHEALHYHVTRKELSLSP
light: not shown
notes: as for B1
B10: IgG1-F1142 (antibody)
heavy: QVQLQESGPGLVKPSETLSLTCAVSGHSISHDHAWSWVRQPPGEGLEWIGFISYSGITNYNPSLQGRVTISRDNSKNTLYLQMNSLRAEDTAVYYCARSLARTTAMDYWGEGTLVTVSSASTKGPSVFPLAPSSKSTSGGTAALGCLVKDYFPEPVTVSWNSGALTSGVHTFPAVLQSSGLYSLSSVVTVPSSSLGTQTYICNVNHKPSNTKVDKKVEPKSCDKTHTCPPCPAPELRGGPKVFLFPPKPKDTLYISRTPEVTCVVVDVSHEDPEVKFNWYVDGVEVHNAKTKPREEQYNSTYRVVSVLTVLHQDWLNGKEYKCKVSNKALPAPIEKTISKAKGQPREPQVYTLPPSRDELTKNQVSLTCLVKGFYPSDIAVEWESNGQPENNYKTTPPVLDSDGSFFLYSKLTVDKSRWQQGNEFRCSVMHEALHYHVTRKELSLSP
light: not shown
notes: as for B1
B11: IgG1-F1138 (antibody)
heavy: QVQLQESGPGLVKPSETLSLTCAVSGHSISHDHAWSWVRQPPGEGLEWIGFISYSGITNYNPSLQGRVTISRDNSKNTLYLQMNSLRAEDTAVYYCARSLARTTAMDYWGEGTLVTVSSASTKGPSVFPLAPSSKSTSGGTAALGCLVKDYFPEPVTVSWNSGALTSGVHTFPAVLQSSGLYSLSSVVTVPSSSLGTQTYICNVNHKPSNTKVDKKVEPKSCDKTHTCPPCPAPELRGGPKVFLFPPKPKDTLYISRTPEVTCVVVDVSHEDPEVKFNWYVDGVEVHNAKTKPREEQYNSTYRVVSVLTVLHQDWLNGKEYKCKVSNKALPAPIEKTISKAKGQPREPQVYTLPPSRDELTKNQVSLTCLVKGFYPSDIAVEWESNGQPENNYKTTPPVLDSDGSFFLYSKLTVDKSRWQQGNVFSCSVMHEALHYHVTRKELSLSP
light: not shown
notes: as for B1
B12: IgG1-F1140 (antibody)
heavy: QVQLQESGPGLVKPSETLSLTCAVSGHSISHDHAWSWVRQPPGEGLEWIGFISYSGITNYNPSLQGRVTISRDNSKNTLYLQMNSLRAEDTAVYYCARSLARTTAMDYWGEGTLVTVSSASTKGPSVFPLAPSSKSTSGGTAALGCLVKDYFPEPVTVSWNSGALTSGVHTFPAVLQSSGLYSLSSVVTVPSSSLGTQTYICNVNHKPSNTKVDKKVEPKSCDKTHTCPPCPAPELLGGPSVFLFPPKPKDTLYISRTPEVTCVVVDVSHEDPEVKFNWYVDGVEVHNAKTKPREEQYNSTYRVVSVLTVLHQDWLNGKEYKCKVSNKALPAPIEKTISKAKGQPREPQVYTLPPSRDELTKNQVSLTCLVKGFYPSDIAVEWESNGQPENNYKTTPPVLDSDGSFFLYSKLTVDKSRWQQGNEFRCSVMHEALHYHVTRKELSLSP
light: not shown
notes: as for B1

T1 sequence (P55899 24-297 limits assumed, chain 1 of 2): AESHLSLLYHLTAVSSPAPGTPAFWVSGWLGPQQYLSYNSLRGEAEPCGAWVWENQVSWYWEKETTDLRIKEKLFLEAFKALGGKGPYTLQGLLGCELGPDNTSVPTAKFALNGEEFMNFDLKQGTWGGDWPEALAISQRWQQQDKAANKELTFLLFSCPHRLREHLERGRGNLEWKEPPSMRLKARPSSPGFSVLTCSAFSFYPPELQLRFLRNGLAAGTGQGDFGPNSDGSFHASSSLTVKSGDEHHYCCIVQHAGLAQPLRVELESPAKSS
T1 sequence (P61769 21-119 limits assumed, chain 2 of 2): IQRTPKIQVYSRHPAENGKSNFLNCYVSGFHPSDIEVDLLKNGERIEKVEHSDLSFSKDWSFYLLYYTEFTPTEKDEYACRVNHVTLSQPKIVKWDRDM

The assay has as its target T1, soluble human FcRn (heterodimer of FcRn alpha chain and beta2-microglobulin) (human, UniProt P55899 24-297; P61769 21-119).
T1 construct: Expressed in HEK293H and purified on IgG Sepharose; also called hFcRn
In words: SPR Biacore T100, antibody captured via protein L, hFcRn analyte, pH 7.0, 25 C.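 Also: KD derived from kinetic ka and kd fits of sensorgrams, CM4 sensor chip, sodium phosphate NaCl Tween20 running buffer, buffer-only injection used as reference.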
Experimental: An appropriate amount of protein L (ACTIGEN) was immobilized onto Sensor chip CM4 (GE Healthcare) by the amino coupling method, and the chip was allowed to capture an antibody of interest. Then, diluted FcRn solutions and running buffer (as a reference solution) were injected to allow human FcRn to interact with the antibody captured on the sensor chip. The running buffer used comprised 50 mmol/l sodium phosphate, 150 mmol/l NaCl, and 0.05% (w/v) Tween20 (pH 7.0). FcRn was diluted using each buffer. The chip was regenerated using 10 mmol/l glycine-HCl (pH 1.5). Assays were carried out exclusively at 25 degrees C. The association rate constant ka (1/Ms) and dissociation rate constant kd (1/s), both of which are kinetic parameters, were calculated based on the sensorgrams obtained in the assays, and KD (M) of each antibody for human FcRn was determined from these values. Each parameter was calculated using Biacore T100 Evaluation Software (GE Healthcare).
The molecule B1 had a Kd of 130 nM.

Take B2: binding was put at a Kd of 160 nM.

In turn, B3 gave a Kd of 14 nM.

The molecule B4 had a Kd of 180 nM. This Kd lies about 13-fold higher than the previous one.

With B5, the Kd was found to be 150 nM.

The molecule B6 came in with a Kd of 160 nM.

As to B7, the Kd is 52 nM.

As for B8, binding was put at a Kd of 62 nM.

With B9, binding was put at a Kd of 200 nM. This Kd lies about 3.2-fold higher than the previous one.

In turn, B10 came in with a Kd of 190 nM.

B11 returned a Kd of 170 nM.

The molecule B12 yielded a Kd of 160 nM. This Kd and that of the molecule before are within 1.5-fold of each other.
